Results from US20250161537A1, “IN-SITU INJECTABLE HYDROGEL ROD USING CROSSLINKED HYDROGEL, METHOD FOR MANUFACTURING SAME, AND BIOMEDICAL USE THEREOF” (AJOU UNIVERSITY INDUSTRY-ACADEMIC COOPERATION FOUNDATION, priority 2022, published 2025).

Assays:
[1] = Intraocular pharmacokinetic evaluation after intravitreal injection (ELISA of vitreous, retina, aqueous humor); assay type: in vivo, New Zealand White (NZW) rabbit
Method: Bevacizumab drug control, hydrogel (in situ forming hydrogel) in Comparative Example, and hydrogel rod in Example were injected. The rabbits were sacrificed on days 1, 4, 8, 14, 30, 60, 90, and 120. In order to maintain its drug efficacy, the concentration of drug must be maintained from vitreous humor to retina, while the drug may be eliminated to the anterior chamber site. For evaluation, pharmacokinetic analysis of vitreous, retina, and aqueous humor tissues was conducted through ELISA after animal sacrifice and ocular separation by date.
After animal sacrifice and ocular separation by date, pharmacokinetic analysis of vitreous, retina, and aqueous tissues was performed via ELISA. […] The hydrogel rod of Example is a pre-crosslinking matrix, and, after the initial burst release is inhibited by 7 times compared to the control and 3 times compared to the hydrogel of Comparative Example, the drug was continuously released within a certain range and the drug concentration of about 32 µg/mL was maintained on 120 day, satisfying a level above […] which is the drug efficacy threshold of bevacizumab.

[2] = system: human umbilical vein endothelial cells (HUVECs); assay: WST-1 assay, growth inhibition of HUVEC by released drug; assay type: cell-based; details: released drug samples diluted 1:1 in culture medium; fresh bevacizumab 1, 10, 100 µg/mL
Method: The long-term efficacy and biological stability of drugs released were evaluated through culture of human umbilical vein endothelial cells (HUVECs), which are cells that are involved in angiogenesis. After culturing HUVECs, they were prepared in 2×10^4 cells/well in a 48-well plate and treated with the long-term released bevacizumab drug samples diluted in 1:1 ratio in a cell culture medium (EBM media containing EGM supplements and 1% P/S) and fresh bevacizumab drug samples by concentration so as to observe cell growth inhibition and safety. For the control of fresh bevacizumab drug samples by concentration, preparation was performed at final concentrations of 1, 10, and 100 µg/mL, diluted in cell culture media.

In the case of bevacizumab, the “initial excess elimination maintained until” value ([1]; aqueous humor (drainway)) is reported as 30 days, the elimination curve ([1]; retina) is reported as “fastest elimination curve” and the elimination curve ([1]; vitreous) is reported as “fastest elimination curve”. For the same substance, the “inhibition of HUVEC cell growth (WST-1)” value [2] was “inhibition of cell growth in proportion to the concentration of the drug”.
